In the assay the target is C-C chemokine receptor 5 (CCR5) (human, UniProt P51681 1-352). Briefly: cell-based or functional assay.
C-C chemokine receptor 5 (CCR5), sequence (P51681 whole entry): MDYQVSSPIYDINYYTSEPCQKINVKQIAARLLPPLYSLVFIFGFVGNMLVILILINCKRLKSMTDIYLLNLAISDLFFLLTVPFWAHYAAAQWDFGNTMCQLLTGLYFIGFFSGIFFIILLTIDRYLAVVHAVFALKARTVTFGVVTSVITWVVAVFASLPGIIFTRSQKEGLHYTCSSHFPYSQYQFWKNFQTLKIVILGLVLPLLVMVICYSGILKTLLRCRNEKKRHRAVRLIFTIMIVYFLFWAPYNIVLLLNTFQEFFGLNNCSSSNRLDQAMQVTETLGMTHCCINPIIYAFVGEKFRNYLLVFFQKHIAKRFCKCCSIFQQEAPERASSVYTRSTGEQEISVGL

B1: Leronlimab (PRO 140) (antibody, human IgG4, kappa, V domains shown)
VH: EVQLVESGGGLVKPGGSLRLSCAASGYTFSNYWIGWVRQAPGKGLEWIGDIYPGGNYIRNNEKFKDKTTLSADTSKNTAYLQMNSLKTEDTAVYYCGSSFGSNYVFAWFTYWGQGTLVTVSS
VL: DIVMTQSPLSLPVTPGEPASISCRSSQRLLSSYGHTYLHWYLQKPGQSPQLLIYEVSNRFSGVPDRFSGSGSGTDFTLKISRVEAEDVGVYYCSQSTHVPLTFGQGTKVEIKR
B1: the “inhibition of MIP-1α-induced calcium mobilization, IC50” value amounted to 21.2 µg/mL; the “inhibition of MIP-1β-induced calcium mobilization, IC50” value amounted to 39.6 µg/mL; the “inhibition of RANTES (CCL5)-induced calcium mobilization, IC50” value turned out to be 59.1 µg/mL.

The values are drawn from patent publication US11045546 (CYTODYN, dated 2021).
